Data reported in the RNAGym collection of RNA variant scans (doi:10.7554/elife.90254).

B1: LINE1-mini (parent)
chain: GGCAGAGCUCAACACAGCGUGGCAAAGUGGCUGUGGCUAGACUGCC

Variants of: B1
Test: self-cleavage, relative activity (ratio to wild type); higher = more cleavage; in vitro, sequencing; the parent is a self-cleaving ribozyme

Variant	self-cleavage
GGCAGAGCUUAACACAGCGUGGCAAAGUGACUGUGGCUAGACUGCC	0.54
GGCAGAGCUUAACACAGCGUGGCAAAGUGCCUGUGGCUAGACUGCC	0.36
GGCAGAGCUUAACACAGCGUGGCAAAGUGUCUGUGGCUAGACUGCC	0.59
GGCAGAGCUCCACACAGCGUGGCAAAGUGGCUGUGGCUAGACUGCC	0.08
GGCAGAGCUCCCCACAGCGUGGCAAAGUGGCUGUGGCUAGACUGCC	0.02
GGCAGAGCUCCGCACAGCGUGGCAAAGUGGCUGUGGCUAGACUGCC	0.04
GGCAGAGCUCCUCACAGCGUGGCAAAGUGGCUGUGGCUAGACUGCC	0.03
GGCAGAGCUUAACACAGCGUGGCAAAGUGGCUGUGGCUAGACAGCC	0.04
GGCAGAGCUUAACACAGCGUGGCAAAGUGGCUGUGGCUAGACCGCC	0.03
GGCAGAGCUUAACACAGCGUGGCAAAGUGGCUGUGGCUAGACGGCC	0.19
GGCAGAGCUUAACACAGCGUGGCAAAGUGGCUCUGGCUAGACUGCC	0.04
GGCAGAGCUUAACACAGCGUGGCAAAGUGGCUUUGGCUAGACUGCC	0.04
GGCAGAGCUUAACACAGCGUGGCAAAGUGGCUAUGGCUAGACUGCC	0.05
GGCAGAGCUUAACACAGCGUGGCAAAGUGGCUGUGGCUAAACUGCC	0.02
GGCAGAGCUUAACACAGCGUGGCAAAGUGGCUGUGGCUAUACUGCC	0.06
GGCAGAGCUUAACACAGCGUGGCAAAGUGGCUGUGGCUACACUGCC	0.04
GGCAGAGCUUAACACAGCGUGGCAAAGUGGCUGCGGCUAGACUGCC	0.08
GGCAGAGCUUAACACAGCGUGGCAAAGUGGCUGGGGCUAGACUGCC	0.32
GGCAGAGCUUAACACAGCGUGGCAAAGUGGCUGAGGCUAGACUGCC	0.14

Variant	self-cleavage
GGCAGAGCUCCACACUGCGUGGCAAAGUGGCUGUGGCUAGACUGCC	0.02
GGCAGAGCUCCACACCGCGUGGCAAAGUGGCUGUGGCUAGACUGCC	0.01
GGCAGAGCUCCACACGGCGUGGCAAAGUGGCUGUGGCUAGACUGCC	0.05
GGCAGAGCUUAACACAGCGUGGCAAAGAGGCUGUGGCUAGACUGCC	0.16
GGCAGAGCUUAACACAGCGUGGCAAAGGGGCUGUGGCUAGACUGCC	0.23
GGCAGAGCUUAACACAGCGUGGCAAAGCGGCUGUGGCUAGACUGCC	0.13
GGCAGAGCUUAACACAGCGGGGCAAAGUGGCUGUGGCUAGACUGCC	0.18
GGCAGAGCUUAACACAGCGCGGCAAAGUGGCUGUGGCUAGACUGCC	0.28
GGCAGAGCUUAACACAGCGAGGCAAAGUGGCUGUGGCUAGACUGCC	0.18
GGCAGAGCUUAACACAGCGUGGCAAAGUGGCUGUGGCAAGACUGCC	0.04
GGCAGAGCUUAACACAGCGUGGCAAAGUGGCUGUGGCGAGACUGCC	0.03
GGCAGAGCUUAACACAGCGUGGCAAAGUGGCUGUGGCCAGACUGCC	0.17
GGCAGAGCUUAACACAGCGUGGCAAAGUGGCUGUGGCUAGACUCCC	0.16
GGCAGAGCUUAACACAGCGUGGCAAAGUGGCUGUGGCUAGACUUCC	0.13
GGCAGAGCUUAACACAGCGUGGCAAAGUGGCUGUGGCUAGACUACC	0.15
GGCAGAGCUUAACACAGCGUGGCAAACUGGCUGUGGCUAGACUGCC	0.23
GGCAGAGCUUAACACAGCGUGGCAAAUUGGCUGUGGCUAGACUGCC	0.31
GGCAGAGCUUAACACAGCGUGGCAAAAUGGCUGUGGCUAGACUGCC	0.27
GGCAGAGCUUAACACAGCGUGGCAAAGUUGCUGUGGCUAGACUGCC	0.39

Variant	self-cleavage
GGCAGAGCUUAACACAGCGUGGCAAAGUAGCUGUGGCUAGACUGCC	0.18
GGCAGAGCUUAACACAGCGUGGCAAAGUCGCUGUGGCUAGACUGCC	0.2
GGCAGAGCUUAACACAGCGUGGCAAAGUGGCCGUGGCUAGACUGCC	0.1
GGCAGAGCUUAACACAGCGUGGCAAAGUGGCGGUGGCUAGACUGCC	0.12
GGCAGAGCUUAACACAGCGUGGCAAAGUGGCAGUGGCUAGACUGCC	0.08
GGCAGAGCUUAACACAGCGUGGCAAAGUGGCUGUAGCUAGACUGCC	0.08
GGCAGAGCUUAACACAGCGUGGCAAAGUGGCUGUUGCUAGACUGCC	0.05
GGCAGAGCUUAACACAGCGUGGCAAAGUGGCUGUCGCUAGACUGCC	0.04
GGCAGAGCUUAACACAGCGUGGCAAAGUGGCUGUGUCUAGACUGCC	0.03
GGCAGAGCUUAACACAGCGUGGCAAAGUGGCUGUGACUAGACUGCC	0.08
GGCAGAGCUUAACACAGCGUGGCAAAGUGGCUGUGCCUAGACUGCC	0.05
GGCAGAGCUUAACACAGCGUUGCAAAGUGGCUGUGGCUAGACUGCC	0.33
GGCAGAGCUUAACACAGCGUGCCAAAGUGGCUGUGGCUAGACUGCC	0.18
GGCAGAGCUUAACACAGCGUGACAAAGUGGCUGUGGCUAGACUGCC	0.25
GGCAGAGCUUAACACAGCGUGUCAAAGUGGCUGUGGCUAGACUGCC	0.42
GGCAGAGCUCCACCCAGCGUGGCAAAGUGGCUGUGGCUAGACUGCC	0.02
GGCAGAGCUCCACGCAGCGUGGCAAAGUGGCUGUGGCUAGACUGCC	0.04
GGCAGAGCUCCACUCAGCGUGGCAAAGUGGCUGUGGCUAGACUGCC	0.03
